Data as given in US9340596.

How the values were obtained:
Assay in all cases: cell-based or functional assay
[1] = biological target: death receptor
[2] = biological target: αVβ3 integrin (human) (UniProt P06756)
[3] = biological target: αVβ5 integrin (human) (UniProt P06756)
αVβ5 integrin (human), sequence (P06756 31-1048, chain 1 of 2): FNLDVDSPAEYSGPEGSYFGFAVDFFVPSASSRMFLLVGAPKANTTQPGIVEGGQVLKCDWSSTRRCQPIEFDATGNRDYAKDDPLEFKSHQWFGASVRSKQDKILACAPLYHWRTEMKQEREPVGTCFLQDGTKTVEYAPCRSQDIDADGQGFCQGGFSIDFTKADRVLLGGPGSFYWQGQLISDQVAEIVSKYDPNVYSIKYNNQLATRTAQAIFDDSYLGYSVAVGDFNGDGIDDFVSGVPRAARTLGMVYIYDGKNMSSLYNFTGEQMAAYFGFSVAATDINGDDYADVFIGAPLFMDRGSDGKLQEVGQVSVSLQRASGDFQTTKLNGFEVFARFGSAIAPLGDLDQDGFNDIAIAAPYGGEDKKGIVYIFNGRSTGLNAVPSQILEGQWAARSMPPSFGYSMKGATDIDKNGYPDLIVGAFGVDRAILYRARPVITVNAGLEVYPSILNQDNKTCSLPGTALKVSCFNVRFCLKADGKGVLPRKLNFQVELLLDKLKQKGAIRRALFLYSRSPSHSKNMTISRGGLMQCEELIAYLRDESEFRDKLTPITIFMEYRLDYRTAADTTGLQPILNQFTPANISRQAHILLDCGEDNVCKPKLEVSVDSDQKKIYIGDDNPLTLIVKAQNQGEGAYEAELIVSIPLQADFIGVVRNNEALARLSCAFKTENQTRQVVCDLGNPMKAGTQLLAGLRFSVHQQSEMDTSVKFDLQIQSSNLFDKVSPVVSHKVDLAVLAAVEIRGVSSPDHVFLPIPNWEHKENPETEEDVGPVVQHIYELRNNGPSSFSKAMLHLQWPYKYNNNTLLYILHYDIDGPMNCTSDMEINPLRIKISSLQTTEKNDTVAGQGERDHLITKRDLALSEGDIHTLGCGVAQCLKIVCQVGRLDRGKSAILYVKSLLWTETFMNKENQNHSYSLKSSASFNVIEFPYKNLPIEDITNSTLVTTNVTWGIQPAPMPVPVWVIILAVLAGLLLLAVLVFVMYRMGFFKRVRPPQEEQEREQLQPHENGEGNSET
αVβ5 integrin (human), sequence (P18084 24-799, chain 2 of 2, further chain): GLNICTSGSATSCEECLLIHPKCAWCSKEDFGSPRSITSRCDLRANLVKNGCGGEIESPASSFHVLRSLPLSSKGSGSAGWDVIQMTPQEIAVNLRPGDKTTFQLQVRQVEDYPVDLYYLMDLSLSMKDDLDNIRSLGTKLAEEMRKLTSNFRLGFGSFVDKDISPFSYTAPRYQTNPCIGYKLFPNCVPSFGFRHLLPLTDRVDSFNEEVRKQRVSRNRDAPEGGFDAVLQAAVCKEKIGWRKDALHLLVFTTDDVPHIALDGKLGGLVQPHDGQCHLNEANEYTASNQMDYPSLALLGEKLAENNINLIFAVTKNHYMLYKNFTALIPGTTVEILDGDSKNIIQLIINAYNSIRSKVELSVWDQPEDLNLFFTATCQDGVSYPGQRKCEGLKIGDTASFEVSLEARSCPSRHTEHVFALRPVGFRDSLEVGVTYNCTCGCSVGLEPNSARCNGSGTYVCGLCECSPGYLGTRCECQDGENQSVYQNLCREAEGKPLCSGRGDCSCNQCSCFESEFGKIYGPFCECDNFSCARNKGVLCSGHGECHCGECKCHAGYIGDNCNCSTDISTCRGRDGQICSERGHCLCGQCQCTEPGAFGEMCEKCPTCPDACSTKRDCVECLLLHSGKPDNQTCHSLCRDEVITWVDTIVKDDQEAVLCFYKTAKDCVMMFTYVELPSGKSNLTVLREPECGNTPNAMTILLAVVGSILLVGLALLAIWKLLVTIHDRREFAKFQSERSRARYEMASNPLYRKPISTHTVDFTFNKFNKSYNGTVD

αVβ3 integrin (human), sequence (P06756 31-1048, chain 1 of 2): as the sequence (P06756 31-1048, chain 1 of 2) above
αVβ3 integrin (human), sequence (P05106 27-788, chain 2 of 2, further chain): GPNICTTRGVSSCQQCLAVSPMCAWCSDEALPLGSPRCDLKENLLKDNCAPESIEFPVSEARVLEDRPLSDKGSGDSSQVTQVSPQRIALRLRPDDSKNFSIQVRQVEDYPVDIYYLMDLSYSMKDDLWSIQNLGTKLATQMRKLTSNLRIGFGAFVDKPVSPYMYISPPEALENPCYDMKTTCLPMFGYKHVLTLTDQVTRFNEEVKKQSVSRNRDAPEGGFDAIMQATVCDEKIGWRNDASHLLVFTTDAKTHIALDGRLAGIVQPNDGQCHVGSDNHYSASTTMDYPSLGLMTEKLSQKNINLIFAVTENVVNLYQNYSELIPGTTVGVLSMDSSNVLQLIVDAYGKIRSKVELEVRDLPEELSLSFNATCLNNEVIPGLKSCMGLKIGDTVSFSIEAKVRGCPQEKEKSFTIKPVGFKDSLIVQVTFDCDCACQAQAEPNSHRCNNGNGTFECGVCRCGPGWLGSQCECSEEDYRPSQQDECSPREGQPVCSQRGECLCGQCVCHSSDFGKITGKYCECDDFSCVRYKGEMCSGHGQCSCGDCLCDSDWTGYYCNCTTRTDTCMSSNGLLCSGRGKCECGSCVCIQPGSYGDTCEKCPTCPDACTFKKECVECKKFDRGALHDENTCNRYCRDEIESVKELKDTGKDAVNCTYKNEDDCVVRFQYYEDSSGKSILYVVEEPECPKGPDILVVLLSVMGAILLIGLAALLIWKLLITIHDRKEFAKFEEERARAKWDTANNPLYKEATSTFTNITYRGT

Work on “RGD-L-TRAIL (human TRAIL variant: short peptide …, connecting peptide of five glycines, TRAIL) (from UniProt P50591 114-281)” yielded an apoptosis rate of COLO-205 cells at 2.43 ng/ml (Annexin V-FITC and PI double staining) [1] of 87.5%, a caspase-8 and caspase-3 activity in Jurkat cells after two hours, against the same dose of wild-type TRAIL [1] of 2.5 times and a medial lethal dose on COLO-205 cells [1] of 0.37 ng/mL. It also gave a medial lethal dose on Jurkat cells [1] of 0.41 ng/mL, a medial lethal dose on MDA-MB-231 cells [1] of 1.2 ng/mL and a fold reduction of the medial lethal dose against wild-type TRAIL, COLO-205 cells [2] of 9.5 times. It also gave a fold reduction of the medial lethal dose against wild-type TRAIL, Jurkat cells [2] of 16.3 times, a fold reduction of the medial lethal dose against wild-type TRAIL, MDA-MB-231 cells [2] of 1.9 times and a fold reduction of the medial lethal dose against wild-type TRAIL, COLO-205 cells [3] of 9.5 times. It also gave a fold reduction of the medial lethal dose against wild-type TRAIL, Jurkat cells [3] of 16.3 times and a fold reduction of the medial lethal dose against wild-type TRAIL, MDA-MB-231 cells [3] of 1.9 times.
